In patent publication US20260374887 (published 2026) one finds Kd data, which are given here for one molecule.

In this experiment the target is BAFF-R (human, UniProt Q96RJ3). Nature of the experiment: other, in vitro experiments.

The Kd is the constant that tells how readily two partners part at equilibrium.

BAFF-R, sequence (Q96RJ3 7-71): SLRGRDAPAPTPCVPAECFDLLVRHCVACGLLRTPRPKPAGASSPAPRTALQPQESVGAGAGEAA

B1: ianalumab (VAY736) (antibody, V domains shown)
VH: QVQLQQSGPGLVKPSQTLSLTCAISGDSVSSNSAAWGWIRQSPGRGLEWLGRIYYRSKWYNSYAVSVKSRITINPDTSKNQFSLQLNSVTPEDTAVYYCARYDWVPKIGVFDSWGQGTLVTVSS
VL: DIVLTQSPATLSLSPGERATLSCRASQFISSSYLSWYQQKPGQAPRLLIYGSSSRATGVPARFSGSGSGTDFTLTISSLEPEDFAVYYCQQLYSSPMTFGQGTKVEIKR
Molecule B1 had a Kd of 0.046 nM.
